Our source for the Kd, koff and kon values is PMC5743471 (Theranostics, 2018).

The target in the assay is mouse serum albumin (mouse, UniProt P07724 25-608). In words: SPR. For orientation: Surface plasmon resonance follows binding to a sensor surface in real time, without labels.

B1: ABD-iTEP (designed binder)
chain: LAEAKVLANRELDKYGVSDFYKRLINKAKTVEGVEALKLHILAALPGVGVPGGVGVPGGVGVPGGVGVPGGVGVPGGVGVPGGVGVPGGVGVPGGVGVPGGVGVPGGVGVPGGVGVPGGVGVPGGVGVPGGVGVPGGVGVPGGVGVPGGVGVPGGVGVPGGVGVPGGVGVPGGVGVPGGVGVPGGVGVPGGVGVPGGVGVPGGVGVPGGVGVPGGVGVPGGVGVPGGVGVPGGVGVPGGVGVPGGVGVPGGVGVPGGVLPGVGGVLPGVGGVLPGVGGVLPGVGGVLPGVGGVLPGVGGVLPGVGGVLPGVGGVLPGVGGVLPGVGGVLPGVGGVLPGVGGVLPGVGGVLPGVGGVLPGVGGVLPGVG
For orientation: Kd means the equilibrium constant for the complex coming apart. Usually koff stands for a measure of how fast the partners let go of each other. In general, kon refers to the second-order rate constant of association. The low end stands for slow association, the high end for fast association. Take B1: the dissociation constant Kd worked out at 1.41 ± 0.04 nM, the dissociation rate constant (koff) worked out at 0.00305 s⁻¹ and the kon was 2.17e+06 M⁻¹ s⁻¹.

B2: ABD-iTEP-pOVA (designed binder)
chain: LAEAKVLANRELDKYGVSDFYKRLINKAKTVEGVEALKLHILAALPGVGVPGGVGVPGGVGVPGGVGVPGGVGVPGGVGVPGGVGVPGGVGVPGGVGVPGGVGVPGGVGVPGGVGVPGGVGVPGGVGVPGGVGVPGGVGVPGGVGVPGGVGVPGGVGVPGGVGVPGGVGVPGGVGVPGGVGVPGGVGVPGGVGVPGGVGVPGGVGVPGGVGVPGGVGVPGGVGVPGGVGVPGGVGVPGGVGVPGGVGVPGGVGVPGGVLPGVGGVLPGVGGVLPGVGGVLPGVGGVLPGVGGVLPGVGGVLPGVGGVLPGVGGVLPGVGGVLPGVGGVLPGVGGVLPGVGGVLPGVGGVLPGVGGVLPGVGGVLPGVGGSIINFEKL
In the case of B2, the affinity, expressed as Kd, was 1.4 ± 0.1 nM.
